Results published in patent publication US11597752B2, “Peptides and combination of peptides and scaffolds thereof for use in immunotherapy against colorectal carcinoma (CRC) and other cancers” (priority 2015, dated 2023).

Columns and labels:
HLA-A*02:01 = HLA-A*02:01 (Homo sapiens, UniProt P04439, D140Y/D185E/D98H/E176V/E277Q/G131W/G231S/I119V/I121R/I166T/I218V/L300P/L318F/N151K/N90K/P208A/P217A/Q86G/Q94H/R138H/R169H/T345S); experiment: MHC binding assay (UV-ligand exchange, beta2m ELISA, peptide exchange yield); details: binding to HLA-A*02:01, β2m ELISA
Method in brief: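 Peptide–MHC complexes formed by UV-ligand exchange, cleaving a UV-sensitive peptide so the test peptide can bind. Exchange yield measured by ELISA: complexes captured on streptavidin-coated wells, diluted 100-fold, detected with HRP anti-β2m (1 h, 37 °C) and TMB at 450 nm, against refolded HLA-A*02:01/MLA-001 standards (15-500 ng/ml).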

[1] = tested on: CD8+ T-cells of healthy HLA-A*02 donors; experiment: In vitro immunogenicity: T-cell priming with aAPCs loaded with peptide/MHC and anti-CD28, multimer staining; format: cell-based, human; details: for Wells positive [%]: HLA-A*02 restricted peptides, among evaluable wells, Table 10B; for donors: percentage of positive donors; for donors / wells: in vitro immunogenicity, Table 10A; for wells: percentage of positive wells
Text: In order to obtain information regarding the immunogenicity of the TUMAPs of the present invention, the inventors performed investigations using an in vitro T-cell priming assay based on repeated stimulations of CD8+ T-cells with artificial antigen presenting cells (aAPCs) loaded with peptide/MHC complexes and anti-CD28 antibody.
In order to perform in vitro stimulations by artificial antigen presenting cells loaded with peptide-MHC complex (pMHC) and anti-CD28 antibody, the inventors first isolated CD8+ T-cells from fresh HLA-A*02 leukapheresis products via positive selection using CD8 microbeads (Miltenyi Biotec, Bergisch-Gladbach, Germany) of healthy donors obtained from the University clinics Mannheim, Germany, after informed consent.
PBMCs and isolated CD8+ lymphocytes were incubated in T-cell medium (TCM) until use consisting of RPMI-Glutamax (Invitrogen, Karlsruhe, Germany) supplemented with 10% heat inactivated human AB serum (PAN-Biotech, Aidenbach, Germany), 100 U/ml Penicillin/100 μg/ml Streptomycin (Cambrex, Cologne, Germany), 1 mM sodium pyruvate (CC Pro, Oberdorla, Germany), 20 μg/ml Gentamycin (Cambrex). 2.5 ng/ml IL-7 (PromoCell, Heidelberg, Germany) and 10 U/ml IL-2 (Novartis Pharma, Nürnberg, Germany) were also added to the TCM at this step.
Generation of pMHC/anti-CD28 coated beads, T-cell stimulations and readout was performed in a highly defined in vitro system using four different pMHC molecules per stimulation condition and 8 different pMHC molecules per readout condition.
The purified co-stimulatory mouse IgG2a anti human CD28 Ab 9.3 (Jung et al., 1987) was chemically biotinylated using Sulfo-N-hydroxysuccinimidobiotin as recommended by the manufacturer (Perbio, Bonn, Germany). Beads used were 5.6 μm diameter streptavidin coated polystyrene particles (Bangs Laboratories, Illinois, USA).
800.000 beads/200 μl were coated in 96-well plates in the presence of 4×12.5 ng different biotin-pMHC, washed and 600 ng biotin anti-CD28 were added subsequently in a volume of 200 μl. Stimulations were initiated in 96-well plates by co-incubating 1×10^6 CD8+ T-cells with 2×10^6 washed coated beads in 200 μl TCM supplemented with 5 ng/ml IL-12 (PromoCell) for 3 days at 37° C. Half of the medium was then exchanged by fresh TCM supplemented with 80 U/ml IL-2 and incubating was continued for 4 days at 37° C. This stimulation cycle was performed for a total of three times. For the pMHC multimer readout using 8 different pMHC molecules per condition, a two-dimensional combinatorial coding approach was used as previously described (Andersen et al., 2012) with minor modifications encompassing coupling to 5 different fluorochromes. Finally, multimeric analyses were performed by staining the cells with Live/dead near IR dye (Invitrogen, Karlsruhe, Germany), CD8-FITC antibody clone SK1 (BD, Heidelberg, Germany) and fluorescent pMHC multimers. For analysis, a BD LSRII SORP cytometer equipped with appropriate lasers and filters was used. Peptide specific cells were calculated as percentage of total CD8+ cells. Evaluation of multimeric analysis was done using the FlowJo software (Tree Star, Oregon, USA). In vitro priming of specific multimer+CD8+ lymphocytes was detected by comparing to negative control stimulations.

| Peptide exchange (MHC class I binding score, peptide exchange yield) (HLA-A*02:01) | Substance | Wells positive [%] [1] | donors [1] | wells [1] |
| --- | --- | --- | --- | --- |
| “+++” (≥50 = +++) | 1 (ALIKQLFEA; listed as Homo sapiens) [compound 1] | “+” (<20% = +) | – | – |
| “++” (≥20% = ++) | 2 (ALLPRYFFL; listed as Homo sapiens) [compound 2] | “++++” (>=70% = ++++) | – | – |
| “++” (≥20% = ++) | 7 (YLTRHLAVL; listed as Homo sapiens) [compound 7] | “+” (<20% = +) | – | – |
| “++” (≥20% = ++) | 9 (ILDDHLSRV; listed as Homo sapiens) [compound 9] | “+” (<20% = +) | – | – |
| “+++” (≥50 = +++) | 10 (RMYNKIFAI; listed as Homo sapiens) [compound 10] | “++++” (>=70% = ++++) | – | – |
| “+++” (≥50 = +++) | 11 (YLFEKTFNM; listed as Homo sapiens) [compound 11] | “+” (<20% = +) | – | – |
| “+++” (≥50 = +++) | 12 (ALVQGILERV; listed as Homo sapiens) [compound 12] | “++++” (>=70% = ++++) | – | – |
| “+++” (≥50 = +++) | 18 (FLSSLKGGLL; listed as Homo sapiens) [compound 18] | “+” (<20% = +) | – | – |
| “+++” (≥50 = +++) | 21 (VLIDHRWVL; listed as Homo sapiens) [compound 21] | “+” (<20% = +) | – | – |
| “+++” (≥50 = +++) | 37 (GLFAGLGGAGA; listed as Homo sapiens) [compound 37] | “+” (<20% = +) | – | – |
| “++” (≥20% = ++) | 38 (SLAPTPVSA; listed as Homo sapiens) [compound 38] | “+” (<20% = +) | – | – |
| “++++” (≥75% = ++++) | 42 (SILDDSFKL; listed as Homo sapiens) [compound 42] | “+” (<20% = +) | – | – |
| “++” (≥20% = ++) | 47 (KLYERCEVV; listed as Homo sapiens) [compound 47] | “+” (<20% = +) | – | – |
| “+++” (≥50 = +++) | 59 (LLTDNVVKL; listed as Homo sapiens) [compound 59] | “+” (<20% = +) | – | – |
| “++” (≥20% = ++) | 64 (KTLGKLWRL; listed as Homo sapiens) [compound 64] | “++++” (>=70% = ++++) | – | – |
| “++” (≥20% = ++) | 123 (KTLERSYLL; listed as Homo sapiens) [compound 123] | “+” (<20% = +) | – | – |
| “+++” (≥50 = +++) | 124 (RVLPPSALQSV; listed as Homo sapiens) [compound 124] | “+” (<20% = +) | – | – |
| “+++” (≥50 = +++) | 127 (RLAELTVDEFLA; listed as Homo sapiens) [compound 127] | “+” (<20% = +) | – | – |
| “+++” (≥50 = +++) | 132 (ALLNAILHSA; listed as Homo sapiens) [compound 132] | “+” (<20% = +) | – | – |

| Peptide exchange (MHC class I binding score, peptide exchange yield) (HLA-A*02:01) | Substance | Wells positive [%] [1] | donors [1] | wells [1] |
| --- | --- | --- | --- | --- |
| “++” (≥20% = ++) | 133 (RTFEKIEEV; listed as Homo sapiens) [compound 133] | “+” (<20% = +) | – | – |
| “++++” (≥75% = ++++) | 141 (AVIEHLERL; listed as Homo sapiens) [compound 141] | “+” (<20% = +) | – | – |
| “+++” (≥50 = +++) | 142 (SLVQRVETI; listed as Homo sapiens) [compound 142] | “+” (<20% = +) | – | – |
| “+++” (≥50 = +++) | 150 (RLADLEALKV; listed as Homo sapiens) [compound 150] | “++” (20%-49% = ++) | – | – |
| “+++” (≥50 = +++) | 179 (RLLSPLSSA; listed as Homo sapiens) [compound 179] | – | – | – |
| “+++” (≥50 = +++) | 181 (NLFDLGGQYLRV; listed as Homo sapiens) [compound 181] | – | – | – |
| “++++” (≥75% = ++++) | 182 (SLNKWIFTV; listed as Homo sapiens) [compound 182] | – | – | – |
| “+++” (≥50 = +++) | 183 (TLQEVVTGV; listed as Homo sapiens) [compound 183] | – | – | – |
| “+++” (≥50 = +++) | 184 (SLLDENNVSSYL; listed as Homo sapiens) [compound 184] | – | – | – |
| “+++” (≥50 = +++) | 185 (VLYTGVVRV; listed as Homo sapiens) [compound 185] | – | – | – |
| “+++” (≥50 = +++) | 186 (KMSEKILLL; listed as Homo sapiens) [compound 186] | – | – | – |
| “+++” (≥50 = +++) | 187 (GLHNVVYGI; listed as Homo sapiens) [compound 187] | – | – | – |
| “+++” (≥50 = +++) | 188 (FLVDGPRVQL; listed as Homo sapiens) [compound 188] | – | – | – |
| “+++” (≥50 = +++) | 189 (AISEVIGKITA; listed as Homo sapiens) [compound 189] | – | – | – |
| “+++” (≥50 = +++) | 190 (AMAEMVLQV; listed as Homo sapiens) [compound 190] | – | – | – |
| “++++” (≥75% = ++++) | 191 (QLFSEIHNL; listed as Homo sapiens) [compound 191] | – | – | – |
| – | 219 (FLDEKGRCV; listed as Homo sapiens) [compound 219] | – | +++ (50%-69% = +++) | ++ (20%-49% = ++) |
| – | 220 (KMDPVAYRV; listed as Homo sapiens) [compound 220] | – | ++++ (>=70% = ++++) | +++ (50%-69% = +++) |
